The labels stand for the following.
B1: Ube2N (enzyme, UniProt P61088 1-152, looked up)
chain: MAGLPRRIIKETQRLLAEPVPGIKAEPDESNARYFHVVIAGPQDSPFEGGTFKLELFLPEEYPMAAPKVRFMTKIYHPNVDKLGRICLDILKDKWSPALQIRTVLLSIQALLSAPNPDDPLANDVAEQWKTNEAQAIETARAWTRLYAMNNI
notes: Ube2N, ubiquitin-conjugating enzyme E2 N; also called wtUbe2N; source: E. coli Rossetta2 (DE3), purified (ion exchange, SEC)
B3: ZNRF1^(CTD, E183A) (domain or fragment, UniProt Q8ND25 139-227, looked up)
chain: SHSGFKCPICSKSVASDEMEMHFIMCLSKPRLSYNDDVLTKDAGACVICLEELLQGDTIARLPCLCIYHKSCIDSWFEVNRSCPEHPAD
notes: ZNRF1, RING E3 ubiquitin ligase, residues 139-227 with E183A; also called ZRNF1^CTD,E183A; E183A mutant; source: E. coli Rossetta2 (DE3), purified
B9: ZNRF1^RING (residues 166–227) (domain or fragment, UniProt Q8ND25 166-227, looked up)
chain: SKPRLSYNDDVLTKDAGECVICLEELLQGDTIARLPCLCIYHKSCIDSWFEVNRSCPEHPAD
notes: ZNRF1, RING E3 ubiquitin ligase, residues 166-227 (RING domain); also called RING domain of ZNRF1; source: E. coli Rossetta2 (DE3), purified (HisTrap, SEC)

Holding throughout (conditions): both partners purified
The target of assay [1] is T1, ZNRF1^CTD (C-terminal domain of ZNRF1, residues 139–227) (UniProt Q8ND25 139-227).
T1 construct: ZNRF1, RING E3 ubiquitin ligase, residues 139-227 of the full-length protein (ZnF and RING domains); also called ZNRF1 C-terminal domain; ZRNF1^CTD; source: E. coli Rossetta2 (DE3), purified (HisTrap, SEC)
T1 sequence (looked up): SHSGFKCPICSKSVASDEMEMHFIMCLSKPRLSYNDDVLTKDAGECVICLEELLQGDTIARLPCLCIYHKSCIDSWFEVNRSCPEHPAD
Put plainly: ITC; ZNRF1^CTD in the cell, Ube2N in the syringe; 25°C; Na-phosphate pH 8.0, 300 mM NaCl; single site model. Background: ITC needs no label: the signal is the heat of the interaction.

The target in assay [2] is T1, ZNRF1^CTD (C-terminal domain of ZNRF1, …). Put plainly: ITC; ZNRF1^CTD in the cell, Ube2N in the syringe; 25°C; Na-phosphate pH 8.0, 450 mM NaCl; single site model.
For assay [3] the target is unchanged. The assay is described as follows: ITC; ZNRF1 construct (10–30 µM) in the cell, E2 in the syringe; 25°C; 20 mM sodium phosphate pH 8.0, 150 mM NaCl; single site model.
A further assay deals with T2, ZNRF1 full-length (UniProt Q8ND25 1-227).
T2 construct: ZNRF1, RING E3 ubiquitin ligase, full-length (ends at residue 227); The C-terminal strep-tag II is called non-cleavable; also called ZNRF1^FL; source: E. coli Rossetta2 (DE3), purified (HisTrap, StrepTrap HP, desalted); not shown: strep-tag II, C-terminal, kept
T2 sequence (looked up): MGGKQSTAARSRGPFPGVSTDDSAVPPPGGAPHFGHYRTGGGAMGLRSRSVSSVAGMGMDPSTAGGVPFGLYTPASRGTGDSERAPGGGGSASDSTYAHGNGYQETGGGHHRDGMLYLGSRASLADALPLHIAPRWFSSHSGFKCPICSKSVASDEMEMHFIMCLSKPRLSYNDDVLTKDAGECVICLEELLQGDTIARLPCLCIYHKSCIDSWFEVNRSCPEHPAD
The assay is described as above.

For assay [4], the target named is B9. Described as above.
The assay “ZNRF1^(CTD, E183A)” deals with B3. The description is as above.
The assay “Ube2N” deals with B1. The assay is described as above.

Regarding B1, the dH in assay [1] is -9.63 kcal/mol; in assay [2] it was -9.26 kcal/mol; in assay [3], -10.5 kcal/mol; with ZNRF1 full-length, -9.17 kcal/mol; in assay [4], -10.9 kcal/mol; in the assay with ZNRF1^(CTD, E183A) it was -9.42 kcal/mol. Also, the stoichiometry N (in general, a count of units in the complex or per binding partner) in assay [1] was 0.984; in assay [2], 0.96; in assay [3] it was 0.915; with ZNRF1 full-length, 0.842; in assay [4], 0.913; in the assay with ZNRF1^(CTD, E183A) it was 0.848. Also, the Kd (usually the free concentration of one partner at which half of the binding sites on the other are occupied at equilibrium, for simple one-to-one binding) with ZNRF1 full-length worked out at 49.5 nM.

B2: Ube2N/Ube2V1 complex (complex)
chain 1: MAGLPRRIIKETQRLLAEPVPGIKAEPDESNARYFHVVIAGPQDSPFEGGTFKLELFLPEEYPMAAPKVRFMTKIYHPNVDKLGRICLDILKDKWSPALQIRTVLLSIQALLSAPNPDDPLANDVAEQWKTNEAQAIETARAWTRLYAMNNI
chain 2: not shown
notes: Ube2N, ubiquitin-conjugating enzyme E2 N; Ube2V1, ubiquitin-conjugating enzyme E2 variant 1; also called Ube2N/V1; source: E. coli Rossetta2 (DE3), each purified, mixed in stoichiometric amounts, complex isolated by SEC
As to B2, in assay [3], the dH was -10.2 kcal/mol and the “stoichiometry N” value came out at 1.04.
As to B3, in the assay with Ube2N, binding was characterised by a dissociation constant (Kd) of 459 nM.

B4: Ube2N^S96R (enzyme, UniProt P61088 1-152, looked up)
chain: MAGLPRRIIKETQRLLAEPVPGIKAEPDESNARYFHVVIAGPQDSPFEGGTFKLELFLPEEYPMAAPKVRFMTKIYHPNVDKLGRICLDILKDKWRPALQIRTVLLSIQALLSAPNPDDPLANDVAEQWKTNEAQAIETARAWTRLYAMNNI
notes: Ube2N, ubiquitin-conjugating enzyme E2 N, with S96R; source: E. coli Rossetta2 (DE3), purified (ion exchange, SEC)
On to B4, for which, in assay [3], the dH is -5.64 kcal/mol and the “stoichiometry N” value came to 0.828.

B5: Ube2N^R14E (enzyme, UniProt P61088 1-152, looked up)
chain: MAGLPRRIIKETQELLAEPVPGIKAEPDESNARYFHVVIAGPQDSPFEGGTFKLELFLPEEYPMAAPKVRFMTKIYHPNVDKLGRICLDILKDKWSPALQIRTVLLSIQALLSAPNPDDPLANDVAEQWKTNEAQAIETARAWTRLYAMNNI
notes: Ube2N, ubiquitin-conjugating enzyme E2 N, with R14E; source: E. coli Rossetta2 (DE3), purified (ion exchange, SEC)
B5: in assay [3], the dH is -8.54 kcal/mol and the “stoichiometry N” value was found to be 0.854.

B6: Ube2N^A98T (enzyme, UniProt P61088 1-152, looked up)
chain: MAGLPRRIIKETQRLLAEPVPGIKAEPDESNARYFHVVIAGPQDSPFEGGTFKLELFLPEEYPMAAPKVRFMTKIYHPNVDKLGRICLDILKDKWSPTLQIRTVLLSIQALLSAPNPDDPLANDVAEQWKTNEAQAIETARAWTRLYAMNNI
notes: Ube2N, ubiquitin-conjugating enzyme E2 N, with A98T; source: E. coli Rossetta2 (DE3), purified (ion exchange, SEC)
Regarding B6, in assay [3], the dH was -9.62 kcal/mol and the “stoichiometry N” value turned out to be 1.05.

B7: Ube2N^R14A (enzyme, UniProt P61088 1-152, looked up)
chain: MAGLPRRIIKETQALLAEPVPGIKAEPDESNARYFHVVIAGPQDSPFEGGTFKLELFLPEEYPMAAPKVRFMTKIYHPNVDKLGRICLDILKDKWSPALQIRTVLLSIQALLSAPNPDDPLANDVAEQWKTNEAQAIETARAWTRLYAMNNI
notes: Ube2N, ubiquitin-conjugating enzyme E2 N, with R14A; source: E. coli Rossetta2 (DE3), purified (ion exchange, SEC)
On to B7, for which, in assay [3], the dH is -8.69 kcal/mol and the “stoichiometry N” value was 0.958.

B8: Ube2N^R14D (enzyme, UniProt P61088 1-152, looked up)
chain: MAGLPRRIIKETQDLLAEPVPGIKAEPDESNARYFHVVIAGPQDSPFEGGTFKLELFLPEEYPMAAPKVRFMTKIYHPNVDKLGRICLDILKDKWSPALQIRTVLLSIQALLSAPNPDDPLANDVAEQWKTNEAQAIETARAWTRLYAMNNI
notes: Ube2N, ubiquitin-conjugating enzyme E2 N, with R14D; source: E. coli Rossetta2 (DE3), purified (ion exchange, SEC)
For the molecule B8, in assay [3], the dH is -8.38 kcal/mol and the “stoichiometry N” value amounted to 0.966.
Molecule B9 registered a Kd with Ube2N of 49.4 nM.

Source of the values: article PMC5941314, “Structural insights into the nanomolar affinity of RING E3 ligase ZNRF1 for Ube2N and its functional implications” (Biochemical Journal, 2018).
